The text below walks through data of patent publication US5770691A, “Discriminatory substrates for MMP hydrolysis” (Regents of the University of Minnesota, priority 1995, dated 1998).

Data set [1] concerns T1, COc1ccc2c(CC(=O)N3CCC[C@H]3C(=O)N[C@@H](CCCCN)C(=O)N3CCC[C@H]3C(=O)N[C@@H](CCC(N)=O)C(=O)N[C@@H](CCC(N)=O)C(=O)N[C@@H](Cc3ccccc3)C(=O)N[C@@H](Cc3ccccc3)C(=O)NCC(=O)N[C@@H](CC(C)C)C(=O)N[C@@H](CCCCNc3ccc([N+](=O)[O-])cc3[N+](=O)[O-])C(=O)NCC(=O)O)cc(=O)oc2c1.
T1 construct: made in house; host or cells: native secreted protein purified from culture medium of human rheumatoid synovial cells
Put plainly: Fluorometric hydrolysis of synthetic Mca/Lys(Dnp) substrates by MMP-3. The class given is biochemical, human. As to conditions: other: MMP-3, 37° C., pH 7.5; 37.0 °C. An excerpt:
(§1) All MMPs were purified in zymogen form. ProMMP-1 (Suzuki et al., Biochem., 29, 10261 (1990)), proMMP-2 (Okada et al., Eur. J. Biochem., 194, 721 (1990)), and proMMP-3 (Ito et al., Arch. Biochem. Biophys., 267, 211 (1988)) were purified from the culture medium of human rheumatoid synovial cells stimulated with rabbit macrophage-conditioned medium. ProMMP-9 was purified from the culture medium of HT-1080 cells as described in Morodomi et al., Biochem. J., 285, 603 (1992). ProMMP-2 and proMMP-9 were activated by reacting with 1 mM 4-aminophenylmercuric acetate at 37° C. for 45 minutes and 32 hours, respectively. ProMMP-1 was activated by reacting with 1 mM 4-aminophenylmercuric acetate and an equimolar amount of MMP-3 at 37° C. for 6 hours. After activation, MMP-3 was completely removed from MMP-1 by affinity chromatography using an anti-MMP-3 IgG Affi-Gel 10 column. The resin, Affi-Gel 10 (Biorad, Emoryville, Calif.), was coupled to anti-MMP-3 IgG (Okada et al., Annals of Rheumat. Dis., 48, 645 (1989)) per the manufacturer's protocol. Pro-MMP-3 was activated by reacting with 5 μg/mL chymotrypsin at 37° C. for 2 hours. Chymotrypsin was inactivated with 2 mM diisopropylfluorophosphate. The amounts of active MMP-1, MMP-2, and MMP-3 were determined by titration with tissue inhibitor of metalloproteinase-1(TIMP1) over a concentration range of 0.1-3 μg/mL, while the amount of active MMP-9 was determined by titration with TIMP-2 (0.1-3 μg/mL). TIMP-1 was isolated from the medium of HT-1080 cells as described in Morodomi et al., Biochem J., 285, 603 (1992).
(§2) Substrates were prepared as 10 mM stock solutions in dimethylsulfoxide (DMSO). Fluorescent assays were performed at λex =325 nm and λem =393 nm, which should encounter no interference from Trp residues, using a Hitachi fluorescence spectrophotometer F-3010. Initial total hydrolysis assays were run at a substrate concentration of […] to avoid filtering effects. The change in fluorescence at this concentration was 110 based on total hydrolysis of 1 μM substrate. A typical assay was carried out by incubating 100 μL of various concentrations of a substrate with 10 μL of an enzyme solution (2-20 nM) in 50 mM Tris-HCl, pH 7.5, 0.15M NaCl, 10 mM CaCl2, 0.05% Brij 35, 0.02% NaN3. The reaction was stopped by addition of 900 μl of 3% (v/v) glacial acetic acid. MMP-3 activity at pH 6.0 was measured in 50 mM sodium acetate buffer, pH 6.0, instead of Tris-HCl buffer. The amount of substrate hydrolysis was calculated based on the fluorescence values of the Mca-Arg-Pro-Lys-Pro-Gln standard solution after substraction of the reaction blank value (stopping solution added before the enzyme). Individual kinetic parameters (kcat and KM) were determined over a substrate concentration range of 2.5-75 μM and calculated by double reciprocal plots.

Data set [2] deals with T2, CCC[C@H](NC(=O)[C@H](CCC(=O)O)NC(=O)[C@@H](NC(=O)[C@@H]1CCCN1C(=O)[C@H](CCCCN)NC(=O)[C@@H]1CCCN1C(=O)[C@H](CCCNC(=N)N)NC(=O)Cc1cc(=O)oc2cc(OC)ccc12)C(C)C)C(=O)N[C@@H](Cc1c[nH]c2ccccc12)C(=O)N[C@@H](CCCNC(=N)N)C(=O)N[C@@H](CCCCNc1ccc([N+](=O)[O-])cc1[N+](=O)[O-])C(N)=O.
T2 construct: made in house; host or cells: native secreted protein purified from culture medium of human rheumatoid synovial cells
Described as above. The class given is biochemical, human.
From the text: as §1, §2

For data set [3], the system named is T3, CCC[C@H](NC(=O)[C@H](C)NC(=O)[C@H](Cc1ccc(O)cc1)NC(=O)[C@@H]1CCCN1C(=O)[C@H](CCCCN)NC(=O)[C@@H]1CCCN1C(=O)[C@H](CCCNC(=N)N)NC(=O)Cc1cc(=O)oc2cc(OC)ccc12)C(=O)N[C@@H](Cc1c[nH]c2ccccc12)C(=O)N[C@@H](CCSC)C(=O)N[C@@H](CCCCNc1ccc([N+](=O)[O-])cc1[N+](=O)[O-])C(N)=O.
T3 construct: made in house; host or cells: native secreted protein purified from culture medium of human rheumatoid synovial cells
Described as above. The class given is biochemical, human. The following applies: other: MMP-3, 37° C., pH 7.5; 37.0 °C.
From the text: as §1, §2

Data set [4] concerns T4, CCC[C@H](NC(=O)[C@H](C)NC(=O)[C@H](Cc1ccc(O)cc1)NC(=O)[C@@H]1CCCN1C(=O)[C@H](CCCCN)NC(=O)[C@@H]1CCCN1C(=O)[C@H](CCCNC(=N)N)NC(=O)Cc1cc(=O)oc2cc(OC)ccc12)C(=O)N[C@@H](Cc1c[nH]c2ccccc12)C(=O)N[C@@H](CCSC)C(=O)N[C@@H](CCCCNc1ccc([N+](=O)[O-])cc1[N+](=O)[O-])C(N)=O.
T4 construct: made in house; host or cells: native secreted protein purified from culture medium of HT-1080 cells
Put plainly: Fluorometric hydrolysis of synthetic Mca/Lys(Dnp) substrates by MMP-9. The class given is biochemical. As to conditions: other: MMP-9, 37° C., pH 7.5.
From the text: as §1, §2

Data set [5] concerns T5, COc1ccc2c(CC(=O)N3CCC[C@H]3C(=O)N[C@@H](CCCCN)C(=O)N3CCC[C@H]3C(=O)N[C@@H](CCC(N)=O)C(=O)N[C@@H](CCC(N)=O)C(=O)N[C@@H](Cc3ccccc3)C(=O)N[C@@H](Cc3ccccc3)C(=O)NCC(=O)N[C@@H](CC(C)C)C(=O)N[C@@H](CCCCNc3ccc([N+](=O)[O-])cc3[N+](=O)[O-])C(=O)NCC(=O)O)cc(=O)oc2c1.
T5 construct: made in house; host or cells: native secreted protein purified from culture medium of HT-1080 cells
Described as above. The following applies: other: MMP-9, 37° C., pH 7.5. The class given is biochemical.
From the text: as §1, §2

Data set [6] has as its system T6, CCC[C@H](NC(=O)[C@H](CCC(=O)O)NC(=O)[C@@H](NC(=O)[C@@H]1CCCN1C(=O)[C@H](CCCCN)NC(=O)[C@@H]1CCCN1C(=O)[C@H](CCCNC(=N)N)NC(=O)Cc1cc(=O)oc2cc(OC)ccc12)C(C)C)C(=O)N[C@@H](Cc1c[nH]c2ccccc12)C(=O)N[C@@H](CCCNC(=N)N)C(=O)N[C@@H](CCCCNc1ccc([N+](=O)[O-])cc1[N+](=O)[O-])C(N)=O.
T6 construct: made in house; host or cells: native secreted protein purified from culture medium of HT-1080 cells
The data set is described as above. The following applies: other: MMP-9, 37° C., pH 7.5. The class given is biochemical.
From the text: as §1, §2

[7] abbreviates: other: MMP-3, 25° C., pH 7.5, 25.0 °C.
Setting [8] is: other: MMP-3, 37° C., pH 7.5, 37.0 °C.
[9] abbreviates: other: MMP-3, pH 6.0 (50 mM sodium acetate buffer), 37° C., pH 6.0, 37.0 °C.

Chain of MMP-3 (Homo sapiens) (chain, as listed by the source): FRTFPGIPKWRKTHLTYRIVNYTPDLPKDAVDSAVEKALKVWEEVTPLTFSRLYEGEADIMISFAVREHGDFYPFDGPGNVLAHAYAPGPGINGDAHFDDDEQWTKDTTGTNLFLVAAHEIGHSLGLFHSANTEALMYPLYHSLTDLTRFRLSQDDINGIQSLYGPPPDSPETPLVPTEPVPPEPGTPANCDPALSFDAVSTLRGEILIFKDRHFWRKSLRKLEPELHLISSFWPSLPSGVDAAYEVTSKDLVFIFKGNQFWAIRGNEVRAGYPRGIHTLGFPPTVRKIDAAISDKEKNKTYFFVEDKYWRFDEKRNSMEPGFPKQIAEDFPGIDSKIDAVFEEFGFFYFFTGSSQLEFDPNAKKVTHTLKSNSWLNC
Chain of MMP-9 (Homo sapiens) (chain, as listed by the source): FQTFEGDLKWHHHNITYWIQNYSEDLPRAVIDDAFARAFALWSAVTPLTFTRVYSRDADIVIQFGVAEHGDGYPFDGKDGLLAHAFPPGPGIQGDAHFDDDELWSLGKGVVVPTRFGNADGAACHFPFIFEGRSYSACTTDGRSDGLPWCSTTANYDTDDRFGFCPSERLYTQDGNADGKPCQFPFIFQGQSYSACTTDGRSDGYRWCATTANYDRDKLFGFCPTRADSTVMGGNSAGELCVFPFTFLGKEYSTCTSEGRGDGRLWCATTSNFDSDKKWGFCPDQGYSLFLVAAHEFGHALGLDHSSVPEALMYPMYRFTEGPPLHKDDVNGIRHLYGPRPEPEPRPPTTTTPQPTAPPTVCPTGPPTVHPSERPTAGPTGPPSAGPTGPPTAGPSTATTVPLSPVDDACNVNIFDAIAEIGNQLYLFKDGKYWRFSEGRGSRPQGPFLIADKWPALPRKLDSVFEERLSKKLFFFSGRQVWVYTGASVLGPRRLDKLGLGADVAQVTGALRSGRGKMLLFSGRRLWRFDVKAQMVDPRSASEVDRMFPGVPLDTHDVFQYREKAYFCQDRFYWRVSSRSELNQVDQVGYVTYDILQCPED

Broadly, the Km is the concentration of substrate that gives half-maximal velocity. Regarding MMP-3 (Homo sapiens), the Km came to 50 µM in data set [1]; 20 µM in data set [2] (setting [7]); 25 µM in data set [2] (setting [8]); 7.5 µM in data set [2] (setting [9]); 66 µM in data set [3]. Moreover, the kcat in data set [1] is recorded as 0.53 S^-1; in data set [2] (setting [7]), 1.31 S^-1; in data set [2] (setting [8]) it was 5.40 S^-1; in data set [2] (setting [9]), 2.20 S^-1; in data set [3], 3.95 S^-1. Moreover, the kcat/Km in data set [1] is given as 10,900 S^-1 M^-1; in data set [2] (setting [7]) it was 65,700 S^-1 M^-1; in data set [2] (setting [8]) it was 218,000 S^-1 M^-1; in data set [2] (setting [9]) it was 302,000 S^-1 M^-1; in data set [3], 59,400 S^-1 M^-1.
MMP-9 (Homo sapiens): the figures for the Km in data set [4], in data set [5] and in data set [6] were 25 µM, 45 µM and 28 µM, respectively. Also, the kcat in data set [4] was 1.38 S^-1; in data set [5], 0.18 S^-1; in data set [6], 0.282 S^-1. Further, the figures for the kcat/Km in data set [4], in data set [5] and in data set [6] were 55,300 S^-1 M^-1, 4,000 S^-1 M^-1 and 10,100 S^-1 M^-1, respectively.
